The text below walks through data of PMC4155686, “Oleoyl Coenzyme A Regulates Interaction of Transcriptional Regulator RaaS (Rv1219c) with DNA in Mycobacteria*” (The Journal of Biological Chemistry, 2014).

One data set has as its target T1, RaaS wild type (Mycobacterium tuberculosis, UniProt O86312 1-212).
T1 sequence: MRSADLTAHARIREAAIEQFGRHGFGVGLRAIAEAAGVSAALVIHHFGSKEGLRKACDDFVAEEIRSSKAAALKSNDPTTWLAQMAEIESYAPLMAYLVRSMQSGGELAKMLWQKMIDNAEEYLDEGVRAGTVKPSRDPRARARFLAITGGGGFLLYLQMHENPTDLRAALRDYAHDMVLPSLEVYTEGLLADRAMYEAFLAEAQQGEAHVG
Put plainly: fluorescence anisotropy; 4 nM DNA. The following applies: protein: recombinant; chain copies: 2.

Data set [1] concerns the molecule itself. Put plainly: small-angle X-ray scattering; protein alone in solution at 1 and 3 mg/ml, data extrapolated to infinite dilution; apparent molecular mass from I(0).

B1: Pr14F/Pr14R (ATTO 647N) (dsDNA)
DNA 1: GGGATGAACGTACGTTTAATATCCTGAACATGCGTTCAG
DNA 2: GGGCTGAACGCATGTTCAGGATATTAAACGTACGTTCAT
As to B1, the Kd with RaaS wild type stood at 31 ± 6 nM.

B2: RaaS (regulator of antimicrobial-assisted survival), Rv1219c, wild type (natural protein)
chain: T1 sequence
notes: also called wild-type RaaS
For B2, the “stoichiometry N” value in data set [1] was 2.
